Laboratory results as given in article PMC9039505, “Ethylene precisely regulates anthocyanin synthesis in apple via a module comprising MdEIL1, MdMYB1, and MdMYB17”.
Changes are numbered by the printed parent chain.

How the values were obtained:
MdMYB17 [1] = biological target: T1, MdMYB17 (apple, UniProt D9ZJ54 1-196); test: EMSA; LightShift Chemiluminescent EMSA kit; buffer, salt, pH and temperature not stated; cold competitor 200-300-fold; details: protein: recombinant; tags: His (pET-32a fusion); label: biotin; blunt
T1 sequence: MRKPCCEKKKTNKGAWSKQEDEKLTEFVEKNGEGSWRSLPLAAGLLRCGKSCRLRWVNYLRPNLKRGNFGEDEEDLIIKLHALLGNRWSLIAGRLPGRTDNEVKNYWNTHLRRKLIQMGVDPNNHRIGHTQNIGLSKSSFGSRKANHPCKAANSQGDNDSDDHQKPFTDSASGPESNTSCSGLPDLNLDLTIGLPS

MdMYB17 [2] = biological target: T1, MdMYB17; test: competition; unlabeled mutant competitor; LightShift Chemiluminescent EMSA kit; buffer, salt, pH and temperature not stated; cold competitor 200-300-fold; details: protein: recombinant; tags: His (pET-32a fusion); blunt
MdEIL1 = biological target: T2, MdEIL1 (apple, UniProt D5L144 1-659); test: EMSA; LightShift Chemiluminescent EMSA kit; buffer, salt, pH and temperature not stated; cold competitor 200-300-fold; details: protein: recombinant; tags: His (pET-32a fusion); label: biotin; blunt
T2 sequence: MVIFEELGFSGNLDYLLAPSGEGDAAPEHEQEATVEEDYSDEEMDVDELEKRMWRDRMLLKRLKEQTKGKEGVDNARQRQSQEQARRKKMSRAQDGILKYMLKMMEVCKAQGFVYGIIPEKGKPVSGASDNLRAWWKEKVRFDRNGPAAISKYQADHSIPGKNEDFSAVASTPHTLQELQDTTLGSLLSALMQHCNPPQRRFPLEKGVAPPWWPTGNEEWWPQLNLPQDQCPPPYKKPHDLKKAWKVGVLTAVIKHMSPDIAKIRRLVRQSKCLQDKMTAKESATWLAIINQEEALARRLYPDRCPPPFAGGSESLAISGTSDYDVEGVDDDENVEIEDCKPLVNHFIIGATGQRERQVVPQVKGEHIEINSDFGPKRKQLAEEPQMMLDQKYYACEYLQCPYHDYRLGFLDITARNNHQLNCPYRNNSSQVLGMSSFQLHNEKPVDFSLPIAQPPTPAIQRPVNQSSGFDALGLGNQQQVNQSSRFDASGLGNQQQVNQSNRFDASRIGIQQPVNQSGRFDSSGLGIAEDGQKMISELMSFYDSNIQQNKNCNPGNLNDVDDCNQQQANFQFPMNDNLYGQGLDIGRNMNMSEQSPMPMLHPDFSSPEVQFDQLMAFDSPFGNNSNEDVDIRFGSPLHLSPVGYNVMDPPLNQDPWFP

MdMYB1 = biological target: T3, MdMYB1 (apple, UniProt A0SQ35 1-243); test: as above; details: protein: recombinant; tags: His (pET-32a fusion); label: biotin; blunt
T3 sequence: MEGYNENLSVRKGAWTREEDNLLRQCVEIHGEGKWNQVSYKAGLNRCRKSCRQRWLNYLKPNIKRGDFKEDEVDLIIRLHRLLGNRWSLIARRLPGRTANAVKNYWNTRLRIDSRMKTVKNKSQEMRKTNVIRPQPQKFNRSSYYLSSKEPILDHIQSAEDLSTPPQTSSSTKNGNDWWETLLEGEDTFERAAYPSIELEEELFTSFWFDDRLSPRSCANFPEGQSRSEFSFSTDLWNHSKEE

B1: MdDFR promoter MBS probe (dsDNA)
DNA 1: AAACTCCCTAAATAAACCAGTTGTACTGGTGGATAGGCCT
DNA 2: AGGCCTATCCACCAGTACAACTGGTTTATTTAGGGAGTTT
binding result (MdMYB17 [1]): binds

B2: MdDFR promoter MBS mutated (dsDNA)
DNA 1: B1 DNA 1 with A19G, T22C
DNA 2: B1 DNA 2 with A19G, T22C
binding result (MdMYB17 [2]): no binding

B3: MdMYB17 promoter ATGTA1 probe (dsDNA)
DNA 1: TCAAATTAATTATAAATTAAATGTAACCATGACAAGGAAAGTGTC
DNA 2: GACACTTTCCTTGTCATGGTTACATTTAATTTATAATTAATTTGA
binding result (MdEIL1): binds

B4: MdMYB17 promoter MBS3 probe (dsDNA)
DNA 1: AGATGTGTAGTTAAATTACCCAACTGTAAGTCAAGCGGAGTAGTCA
DNA 2: TGACTACTCCGCTTGACTTACAGTTGGGTAATTTAACTACACATCT
binding result (MdMYB1): binds

B5: MdMYB1 promoter MBS probe (dsDNA)
DNA 1: AGACTGGTAGCTATTAACAACTGTTGGAATGTTTTAAACT
DNA 2: AGTTTAAAACATTCCAACAGTTGTTAATAGCTACCAGTCT
binding result (MdMYB17 [1]): binds

B6: MdMYB1 promoter MBS mutated (dsDNA)
DNA 1: B5 DNA 1 with A19G, G23A
DNA 2: B5 DNA 2 with C18T, T22C
binding result (MdMYB17 [2]): no binding

B7: MdUFGT promoter MBS probe (dsDNA)
DNA 1: GTCAAGTATGGTACAAACAACTGCAATAAAATATTGCCAC
DNA 2: GTGGCAATATTTTATTGCAGTTGTTTGTACCATACTTGAC
binding result (MdMYB17 [1]): binds

B8: MdUFGT promoter MBS mutated (dsDNA)
DNA 1: B7 DNA 1 with A19G, G23A
DNA 2: B7 DNA 2 with C18T, T22C
binding result (MdMYB17 [2]): no binding

B9: MdEIL1 promoter MRE2 probe (dsDNA)
DNA 1: ATTGTTCTGTTTATTGTTTAGGTTAATCTGTTCTTATCTGC
DNA 2: GCAGATAAGAACAGATTAACCTAAACAATAAACAGAACAAT
binding result (MdMYB17 [1]): binds
